Results reported in patent US20230235013A1 (MABSOLVE, published 2023).
Substitutions are numbered along the chain they refer to. In names and notes the source's numbering stands. Blank lines part the entries; values can stand above or below the binder they belong to.

What was measured:
[1] = molecular target: T1, human FcγRIIIA (F158) (human, UniProt P08637 17-208); test: SPR, FcγRIIIA captured; also: test concentration or dose not given here
T1 construct: bought; F158 allele

[2] = molecular target: T2, human FcγRIIB (human, UniProt P31994 43-217); test: SPR, receptor captured on anti-His chip
T2 construct: bought
T2 sequence (looked up): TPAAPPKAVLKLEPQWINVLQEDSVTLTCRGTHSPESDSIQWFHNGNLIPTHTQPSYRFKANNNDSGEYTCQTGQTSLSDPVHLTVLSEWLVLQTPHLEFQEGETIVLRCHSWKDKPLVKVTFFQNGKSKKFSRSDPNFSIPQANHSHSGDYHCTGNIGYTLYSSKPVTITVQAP

[3] = molecular target: T3, human FcγRIIA (R131) (human, UniProt P12318 34-218, limits assumed); test: SPR, receptor captured on anti-His chip
T3 construct: bought; R131 allele
T3 sequence (looked up): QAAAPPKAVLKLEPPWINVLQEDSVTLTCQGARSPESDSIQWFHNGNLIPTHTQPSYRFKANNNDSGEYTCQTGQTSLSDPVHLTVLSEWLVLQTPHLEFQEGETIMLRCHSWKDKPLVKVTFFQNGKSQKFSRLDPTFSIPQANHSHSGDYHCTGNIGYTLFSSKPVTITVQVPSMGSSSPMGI

[4] = molecular target: T4, human FcγRIIIB (NA2 allotype) (human, UniProt O75015 17-200, limits assumed); test: SPR, receptor captured on anti-His chip
T4 construct: bought; NA2 allotype

[5] = molecular target: T1, human FcγRIIIA (F158); test: SPR, receptor captured on anti-His chip
[6] = molecular target: T5, Histidine-tagged recombinant human FcγRI (CD64) (human, UniProt P12314 16-288, limits assumed); test: SPR, His-FcγRI captured; Expt 1 Rep 2;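 also: antibody analyte injected at 100 µg/mL for 1 min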
T5 construct: bought
Description: (§1) Methods were run using the manufacturer's standard method wizards as described in the Biacore® T200 Instrument Handbook.
(§2) The cell was activated by treatment with EDC/NHS for 7 min. The antibody was diluted to 10 μg/mL in 10 mM sodium acetate pH 5.0 and injected for 7 min at 5 μL/min. The flow cell was deactivated by injection of 1M ethanolamine for 7 min. This process was repeated in the absence of anti-his antibody on a separate flow cell to generate a reference surface. […] Samples of purified antibodies comprising variant Fc regions (1 mg/mL in PBS) were diluted with running buffer to 100 μg/mL and were injected for 1 min at 30 μL/min and allowed to disassociate for 2 min. Between each cycle, the chip was regenerated by injection of 10 mM glycine pH 3.0 for 0.5 min at a flow rate of 30 μL/min and recharged with a fresh injection of FcγRI. At the beginning of each experiment, three blank cycles were run, with buffer alone being injected instead of test sample. The average SPR signal (relative to the reference cell) was measured in a window approximately 8 to 13 seconds before the injection of test sample (baseline) and approximately 3 to 8 seconds before the end of injection (response). The response of the third of the blank (buffer) samples was subtracted from the response of each test sample in order to allow for any dissociation of the bound FcγRI giving a corrected response for each test sample. The whole experiment was repeated three times with the test samples being analysed in different orders each time. […] This lot was run at the beginning and end of each experiment as a consistency check.

[7] = molecular target: T5, Histidine-tagged recombinant human …; test: SPR, His-FcγRI captured; Expt 2;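 also: biacore T200 SPR at 25 °C, Fc-variant antibodies at 100 µg/mL flowed 1 min over anti-His-captured receptor, signal read near injection end minus third buffer blank; antibody analyte injected at 100 µg/mL for 1 min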
[8] = molecular target: T5, Histidine-tagged recombinant human …; test: SPR, His-FcγRI captured; CHO-produced; Expt 2 Rep 2;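 also: antibody analyte injected at 100 µg/mL for 1 min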
Description: as §1, §2

[9] = molecular target: T5, Histidine-tagged recombinant human …; test: SPR, His-FcγRI captured; CHO-produced; Expt 2 Rep 1;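 also: antibody analyte injected at 100 µg/mL for 1 min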
Description: as §1, §2

[10] = molecular target: T6, human FcRn (human, UniProt P55899 24-297; P61769 21-119); test: SPR pH 6.0, FcRn captured; Expt 2
T6 construct: bought

[11] = molecular target: T6, human FcRn; test: SPR pH 6.0, FcRn captured; Expt 1
[12] = molecular target: T5, Histidine-tagged recombinant human …; test: SPR, His-FcγRI captured; Expt 3;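 also: biacore T200 SPR at 25 °C, Fc-variant antibodies at 100 µg/mL flowed 1 min over anti-His-captured FcγRI, signal taken just before injection end minus a buffer blank cycle; antibody analyte injected at 100 µg/mL for 1 min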
Description: (§3) Binding analysis was carried out by surface plasmon resonance at 25° C. using a Biacore® T200 instrument with Biacore® T200 control software. The sample compartment was held at 5° C. The running buffer (HBS-EP+) consisted of 0.01 M HEPES pH 7.4, containing 0.15 M NaCl, 3 mM EDTA, and 0.05% v/v Surfactant P20. Methods were run using the manufacturer's standard method wizards as described in the Biacore® T200 Instrument Handbook.
(§4) The cell was activated by treatment with EDC/NHS for 7 min. The antibody was diluted to 10 μg/mL in 10 mM sodium acetate pH 5.0 and injected for 7 min at 5 μL/min. The flow cell was deactivated by injection of 1M ethanolamine for 7 min. This process was repeated in the absence of anti-his antibody on a separate flow cell to generate a reference surface. […] Samples of purified antibodies comprising variant Fc regions (1 mg/mL in PBS) were diluted with running buffer to 100 μg/mL and were injected for 1 min at 30 μL/min and allowed to disassociate for 2 min. Between each cycle, the chip was regenerated by injection of 10 mM glycine pH 3.0 for 0.5 min at a flow rate of 30 μL/min and recharged with a fresh injection of FcγRI. At the beginning of each experiment, three blank cycles were run, with buffer alone being injected instead of test sample. The average SPR signal (relative to the reference cell) was measured in a window approximately 8 to 13 seconds before the injection of test sample (baseline) and approximately 3 to 8 seconds before the end of injection (response). The response of the third of the blank (buffer) samples was subtracted from the response of each test sample in order to allow for any dissociation of the bound FcγRI giving a corrected response for each test sample. The whole experiment was repeated three times with the test samples being analysed in different orders each time.

[13] = molecular target: T5, Histidine-tagged recombinant human …; test: SPR, receptor captured on anti-His chip
[14] = molecular target: T7, rat FcγRI (rat, UniProt A0A0B4J2J0 16-285); test: SPR, receptor captured on anti-His chip
T7 construct: bought; captured on anti-histidine chip
T7 sequence: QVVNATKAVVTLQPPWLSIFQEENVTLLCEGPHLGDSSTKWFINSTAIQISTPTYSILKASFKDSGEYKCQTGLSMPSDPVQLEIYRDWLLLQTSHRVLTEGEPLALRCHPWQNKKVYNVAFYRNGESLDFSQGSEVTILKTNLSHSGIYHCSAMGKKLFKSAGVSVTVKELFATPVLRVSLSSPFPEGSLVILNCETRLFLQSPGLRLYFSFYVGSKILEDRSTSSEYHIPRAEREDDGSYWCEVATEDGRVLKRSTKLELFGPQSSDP

[15] = molecular target: T8, rabbit FcγRI (rabbit); test: SPR, receptor captured on anti-His chip
T8 construct: bought; captured on anti-histidine chip

[16] = molecular target: T9, mouse FcγRI (mouse, UniProt P26151 25-297); test: SPR, receptor captured on anti-His chip
T9 construct: bought; captured on anti-histidine chip
T9 sequence (looked up): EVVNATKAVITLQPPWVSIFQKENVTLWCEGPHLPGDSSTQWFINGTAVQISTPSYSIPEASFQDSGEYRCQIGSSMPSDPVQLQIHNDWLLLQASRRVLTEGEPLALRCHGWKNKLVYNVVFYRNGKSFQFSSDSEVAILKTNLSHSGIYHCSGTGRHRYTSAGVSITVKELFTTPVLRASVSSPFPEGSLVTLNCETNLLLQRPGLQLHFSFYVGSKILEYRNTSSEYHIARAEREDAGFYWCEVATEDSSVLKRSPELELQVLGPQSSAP

[17] = molecular target: T5, Histidine-tagged recombinant human …; test: SPR, His-FcγRI captured; CHO-produced; Expt 1 Rep 1;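 also: antibody analyte injected at 100 µg/mL for 1 min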
Description: as §1, §2

[18] = molecular target: T10, cynomolgus monkey FcRn (cynomolgus monkey, UniProt Q8SPV9 24-297; Q8SPW0 21-119); test: SPR pH 6.0, FcRn captured
T10 construct: bought; also called cynomolgus FcRn
Description: Samples of purified antibodies comprising variant Fc regions (1 mg/mL in PBS) were diluted with running buffer to 100 μg/mL and were injected for 1 min at 30 μL/min and allowed to disassociate for 2 min. Between each cycle, the chip was regenerated by injection of 10 mM glycine pH 3.0 for 0.5 min at a flow rate of 30 μL/min and recharged with a fresh injection of FcγRI. At the beginning of each experiment, three blank cycles were run, with buffer alone being injected instead of test sample. The average SPR signal (relative to the reference cell) was measured in a window approximately 8 to 13 seconds before the injection of test sample (baseline) and approximately 3 to 8 seconds before the end of injection (response). The response of the third of the blank (buffer) samples was subtracted from the response of each test sample in order to allow for any dissociation of the bound FcγRI giving a corrected response for each test sample. The whole experiment was repeated three times with the test samples being analysed in different orders each time. […] This lot was run at the beginning and end of each experiment as a consistency check.
As before the binding responses were corrected by subtraction of the response given by a blank sample consisting of running buffer alone.

[19] = molecular target: T5, Histidine-tagged recombinant human …; test: SPR, His-FcγRI captured; Expt 2 Rep 1;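 also: antibody analyte injected at 100 µg/mL for 1 min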
Description: as §1, §2

[20] = molecular target: T5, Histidine-tagged recombinant human …; test: SPR, His-FcγRI captured; Expt 1 Rep 1;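 also: antibody analyte injected at 100 µg/mL for 1 min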
Description: as §1, §2

[21] = molecular target: T5, Histidine-tagged recombinant human …; test: SPR, His-FcγRI captured; CHO-produced; Expt 1 Rep 2;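 also: antibody analyte injected at 100 µg/mL for 1 min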
Description: as §1, §2

[22] = molecular target: T5, Histidine-tagged recombinant human …; test: SPR, His-FcγRI captured; mean;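 also: biacore T200 SPR at 25 °C, anti-His surface capturing FcγRI, Fc-variant antibodies injected at 100 µg/mL for 1 min, signal near injection end minus third buffer blank, three repeats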
[23] = molecular target: T5, Histidine-tagged recombinant human …; test: SPR, His-FcγRI captured; Expt 2 Rep 2;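 also: antibody analyte injected at 100 µg/mL for 1 min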
Description: as §1, §2

[24] = molecular target: T5, Histidine-tagged recombinant human …; test: SPR, His-FcγRI captured; Expt 1;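 also: SPR at 25 °C on anti-His antibody chip capturing FcγRI, Fc-variant antibodies injected at 100 µg/mL for 1 min, signal near end of injection minus buffer blank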
Description: as §3, §4

T1 sequence (P08637 17-208 limits assumed): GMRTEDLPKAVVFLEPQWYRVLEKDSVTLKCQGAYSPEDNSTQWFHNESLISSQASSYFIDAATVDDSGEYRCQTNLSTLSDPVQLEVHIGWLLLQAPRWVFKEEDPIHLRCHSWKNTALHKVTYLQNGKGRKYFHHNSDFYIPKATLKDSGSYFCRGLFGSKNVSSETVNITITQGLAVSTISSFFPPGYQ

Corrected response (RU) [23]: 0 RU | Corrected response (RU) [6]: -10.6 RU | Corrected response (RU) [20]: -9.4 RU
B2: anti-CD20 human IgG1 L235T/G236R (antibody)
heavy: not shown
light: QIVLSQSPAILSASPGEKVTMTCRASSSVSYIHWFQQKPGSSPKPWIYATSNLASGVPVRFSGSGSGTSYSLTISRVEAEDAATYYCQQWTSNPPTFGGGTKLEIKRTVAAPSVFIFPPSDEQLKSGTASVVCLLNNFYPREAKVQWKVDNALQSGNSQESVTEQDSKDSTYSLSSTLTLSKADYEKHKVYACEVTHQGLSSPVTKSFNRGEC
notes: also called 2-86

Corrected response (RU) [3]: 9.4 RU | Corrected response (RU) [5]: -1.4 RU | Corrected response (RU) [10]: 430 RU | Corrected response (RU) [11]: 426 RU | Corrected response (RU) [13]: 578 RU | Corrected response (RU) [14]: 1470 RU | Corrected response (RU) [15]: 410 RU | Corrected response (RU) [16]: 49.3 RU | Corrected response (RU) [18]: 1040 RU
B3: anti-CD20 human IgG1 N297Q (aglycosyl) (antibody)
heavy: not shown
light: B2 light
notes: also called 2-67

Corrected response (RU) [24]: -0.5 RU | Corrected response (RU) [6]: -12.1 RU | Corrected response (RU) [7]: 0.3 RU | Corrected response (RU) [8]: -8.9 RU | Corrected response (RU) [9]: -9.2 RU | Corrected response (RU) [17]: -23.4 RU | Corrected response (RU) [19]: -1 RU | Corrected response (RU) [20]: -23.8 RU | Corrected response (RU) [21]: -20.7 RU | Corrected response (RU), Mean [22]: 0.6 RU
B6: anti-CD20 human IgG1 L234S/L235T/G236R (antibody)
heavy: QVQLQQPGAELVKPGASVKMSCKASGYTFTSYNMHWVKQTPGRGLEWIGAIYPGNGDTSYNQKFKGKATLTADKSSSTAYMQLSSLTSEDSAVYYCARSTYYGGDWYFNVWGAGTTVTVSSASTKGPSVFPLAPSSKSTSGGTAALGCLVKDYFPEPVTVSWNSGALTSGVHTFPAVLQSSGLYSLSSVVTVPSSSLGTQTYICNVNHKPSNTKVDKKVEPKSCDKTHTCPPCPAPESTRGPSVFLFPPKPKDTLMISRTPEVTCVVVDVSHEDPEVKFNWYVDGVEVHNAKTKPREEQYNSTYRVVSVLTVLHQDWLNGKEYKCKVSNKALPAPIEKTISKAKGQPREPQVYTLPPSRDELTKNQVSLTCLVKGFYPSDIAVEWESNGQPENNYKTTPPVLDSDGSFFLYSKLTVDKSRWQQGNVFSCSVMHEALHNHYTQKSLSLSPGK
light: B2 light
notes: also called 2-52; 1-150

More lines, now with the values behind:

B1: anti-CD20 (rituximab) human IgG1 wild-type reference (antibody)
heavy: not shown
light: B2 light
notes: 2-1 and 10.0 are separate lots from HEK293; also called 2-1; 10.0
Corrected response (RU) [1]: 588 RU | Corrected response (RU) [2]: 175 RU | Corrected response (RU) [3]: 345 RU | Corrected response (RU) [4]: 501 RU | Corrected response (RU) [5]: 889 RU | Corrected response (RU) [6]: 2380 RU | Corrected response (RU) [7]: 2570 RU | Corrected response (RU) [8]: 1390 RU | Corrected response (RU) [9]: 1350 RU | Corrected response (RU) [10]: 650 RU | Corrected response (RU) [11]: 647 RU | Corrected response (RU) [12]: 2600 RU | Corrected response (RU) [13]: 3020 RU | Corrected response (RU) [14]: 2220 RU | Corrected response (RU) [15]: 2770 RU | Corrected response (RU) [16]: 1790 RU | Corrected response (RU) [17]: 2120 RU | Corrected response (RU) [18]: 1440 RU | Corrected response (RU) [19]: 1460 RU | Corrected response (RU) [20]: 2370 RU | Corrected response (RU) [21]: 2180 RU | Corrected response (RU), Mean [22]: 2590 RU

B4: anti-CD20 human IgG1 L234A/L235A (LALA) (antibody)
heavy: not shown
light: B2 light
notes: 2-65 and 10.16 are separate lots; also called 2-65; 10.16
Corrected response (RU) [2]: 13.2 RU | Corrected response (RU) [3]: 21.8 RU | Corrected response (RU) [4]: 16 RU | Corrected response (RU) [5]: 57.4 RU | Corrected response (RU) [23]: 478 RU | Corrected response (RU) [6]: 654 RU | Corrected response (RU) [8]: 440 RU | Corrected response (RU) [9]: 452 RU | Corrected response (RU) [10]: 614 RU | Corrected response (RU) [11]: 612 RU | Corrected response (RU) [13]: 832 RU | Corrected response (RU) [14]: 2.3 RU | Corrected response (RU) [15]: 141 RU | Corrected response (RU) [16]: 6.3 RU | Corrected response (RU) [17]: 597 RU | Corrected response (RU) [18]: 1390 RU | Corrected response (RU) [19]: 524 RU | Corrected response (RU) [20]: 752 RU | Corrected response (RU) [21]: 577 RU

B5: anti-CD20 human IgG1 L234S/L235T (antibody)
heavy: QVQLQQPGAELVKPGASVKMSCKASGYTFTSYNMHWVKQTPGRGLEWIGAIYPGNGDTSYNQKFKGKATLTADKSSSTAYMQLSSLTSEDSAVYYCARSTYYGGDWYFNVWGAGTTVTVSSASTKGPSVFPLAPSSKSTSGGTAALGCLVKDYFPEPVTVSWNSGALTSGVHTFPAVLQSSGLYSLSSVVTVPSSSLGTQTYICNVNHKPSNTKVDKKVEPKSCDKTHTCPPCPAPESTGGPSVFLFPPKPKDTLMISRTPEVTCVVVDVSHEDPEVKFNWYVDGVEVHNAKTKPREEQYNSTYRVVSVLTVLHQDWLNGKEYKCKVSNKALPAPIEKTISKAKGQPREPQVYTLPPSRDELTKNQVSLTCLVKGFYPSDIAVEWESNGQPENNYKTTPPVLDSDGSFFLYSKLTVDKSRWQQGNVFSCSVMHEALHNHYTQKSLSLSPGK
light: B2 light
notes: also called 2-87
Corrected response (RU) [23]: 62.4 RU | Corrected response (RU) [6]: 54.1 RU | Corrected response (RU) [20]: 62.9 RU

B7: anti-CD20 human IgG1 L234A/L235A/P329G (LALAPG reference) (antibody)
heavy: not shown
light: B2 light
notes: also called 2-66
Corrected response (RU) [2]: -0.6 RU | Corrected response (RU) [3]: 0.9 RU | Corrected response (RU) [4]: -1.6 RU | Corrected response (RU) [5]: -0.4 RU | Corrected response (RU) [23]: 49.5 RU | Corrected response (RU) [6]: 40.7 RU | Corrected response (RU) [10]: 557 RU | Corrected response (RU) [11]: 543 RU | Corrected response (RU) [13]: 72.9 RU | Corrected response (RU) [14]: 0.5 RU | Corrected response (RU) [15]: 5.6 RU | Corrected response (RU) [16]: -0.2 RU | Corrected response (RU) [18]: 1270 RU | Corrected response (RU) [19]: 62.4 RU | Corrected response (RU) [20]: 53.4 RU

B8: anti-CD20 human IgG1 L234Q/L235S/G236R (antibody)
heavy: B6 heavy with S238Q, T239S
light: B2 light
notes: also called 2-33; 10.77
Corrected response (RU) [1]: 2.7 RU | Corrected response (RU) [24]: -1.8 RU | Corrected response (RU) [3]: 1.8 RU | Corrected response (RU) [4]: 2.3 RU | Corrected response (RU) [7]: 1.6 RU | Corrected response (RU) [10]: 496 RU | Corrected response (RU) [11]: 488 RU | Corrected response (RU) [12]: 3.8 RU | Corrected response (RU) [14]: 0.6 RU | Corrected response (RU) [15]: 0.9 RU | Corrected response (RU) [16]: 0.5 RU | Corrected response (RU) [18]: 1170 RU
